Measured values published in patent publication US20050239706A1, “Modulation of fiaf and the gastrointestinal microbiota as a means to control energy storage in a subject” (Washington University in St. Louis, priority 2003, published 2005).

T1: LPL (Homo sapiens, UniProt P06858)
T1 sequence (P06858 28-475): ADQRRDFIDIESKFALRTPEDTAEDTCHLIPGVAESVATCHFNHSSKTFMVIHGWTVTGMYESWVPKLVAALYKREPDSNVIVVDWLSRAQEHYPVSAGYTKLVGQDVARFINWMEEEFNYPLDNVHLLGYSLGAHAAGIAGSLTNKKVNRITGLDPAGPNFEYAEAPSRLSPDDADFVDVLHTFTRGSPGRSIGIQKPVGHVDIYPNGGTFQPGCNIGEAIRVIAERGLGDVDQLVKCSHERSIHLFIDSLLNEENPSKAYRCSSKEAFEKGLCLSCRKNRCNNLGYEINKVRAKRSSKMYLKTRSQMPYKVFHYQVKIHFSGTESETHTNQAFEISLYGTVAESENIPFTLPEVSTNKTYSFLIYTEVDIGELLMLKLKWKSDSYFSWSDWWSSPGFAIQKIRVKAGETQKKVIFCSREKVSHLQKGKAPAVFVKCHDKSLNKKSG


Key:
[1] = target: Lipoprotein lipase (LPL) (mouse) (UniProt P11152); experiment: cell-based or functional assay
Lipoprotein lipase (LPL) (mouse), sequence (P11152 28-474 limits assumed): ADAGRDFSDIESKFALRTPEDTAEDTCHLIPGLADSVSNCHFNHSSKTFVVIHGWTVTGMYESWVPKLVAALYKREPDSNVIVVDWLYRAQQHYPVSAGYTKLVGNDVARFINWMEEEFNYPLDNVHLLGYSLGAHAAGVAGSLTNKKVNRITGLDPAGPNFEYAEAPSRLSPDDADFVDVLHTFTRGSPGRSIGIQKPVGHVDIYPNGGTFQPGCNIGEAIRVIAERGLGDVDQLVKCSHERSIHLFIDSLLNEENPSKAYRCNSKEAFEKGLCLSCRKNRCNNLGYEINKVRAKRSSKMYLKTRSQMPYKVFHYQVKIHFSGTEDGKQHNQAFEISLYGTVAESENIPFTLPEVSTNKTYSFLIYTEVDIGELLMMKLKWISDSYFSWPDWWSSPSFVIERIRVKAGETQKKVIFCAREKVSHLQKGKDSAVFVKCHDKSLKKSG

LPL = target: T1, LPL; conditions: in vitro; read-out: IC50 for inhibition of LPL; cited from earlier work

epididymal fat pad LPL activity, GF Fiaf-/- mice versus GF littermates containing the wild-type Fiaf allele [1] [% higher] | Molecule | IC50 (LPL) [µM]
67 | Fasting-induced adipose factor (Fiaf) (from UniProt Q9Z1P8 24-410) | –
– | Fiaf: secreted protein, a potent inhibitor of LPL in vitro (protein) QGRPAQPEPPRFASWDEMNLLAHGLLQLGHGLREHVERTRGQLGALERRMAACGNACQGPKGKDAPFKDSEDRVPEGQTPETLQSLQTQLKAQNSKIQQLFQKVAQQQRYLSKQNLRIQNLQSQIDLLAPTHLDNGVDKTSRGKRLPKMTQLIGLTPNATHLHRPPRDCQELFQEGERHSGLFQIQPLGSPPFLVNCEMTSDGGWTVIQRRLNGSVDFNQSWEAYKDGFGDPQGEFWLGLEKMHSITGNRGSQLAVQLQDWDGNAKLLQFPIHLGGEDTAYSLQLTEPTANELGATNVSPNGLSLPFSTWDQDHDLRGDLNCAKSLSGGWWFGTCSHSNLNGQYFHSIPRQRQERKKGIFWKTWKGRYYPLQATTLLIQPMEATAAS | 0.2
